Reference: patent US20260125451A1 (JIANGSU HENGRUI PHARMACEUTICALS, published 2026)
Read-outs that look alike come from different tables or passages of the source. Each block holds one binder with its values, some of them ahead of it.

Assays:
[1] = biological target: T1, type I interferon (IFN) receptor subunit 1 (IFNAR1) (human, UniProt P17181 28-557); experiment: cell-based or functional assay
T1 sequence (looked up): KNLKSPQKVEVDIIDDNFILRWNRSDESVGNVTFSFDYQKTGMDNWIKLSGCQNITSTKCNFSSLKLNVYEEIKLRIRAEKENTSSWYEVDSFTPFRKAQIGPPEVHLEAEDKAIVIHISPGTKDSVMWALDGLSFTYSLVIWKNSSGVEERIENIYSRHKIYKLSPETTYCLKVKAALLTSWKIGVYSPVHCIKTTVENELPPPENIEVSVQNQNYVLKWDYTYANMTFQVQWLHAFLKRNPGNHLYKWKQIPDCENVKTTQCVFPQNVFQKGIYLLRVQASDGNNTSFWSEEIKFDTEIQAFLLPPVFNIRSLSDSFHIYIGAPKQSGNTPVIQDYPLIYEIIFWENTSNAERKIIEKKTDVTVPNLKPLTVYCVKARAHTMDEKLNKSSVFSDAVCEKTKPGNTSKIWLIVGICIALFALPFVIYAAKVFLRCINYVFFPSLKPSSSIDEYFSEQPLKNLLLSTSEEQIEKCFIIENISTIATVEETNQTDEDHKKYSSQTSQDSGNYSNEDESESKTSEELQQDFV

[2] = biological target: T1, type I interferon (IFN) receptor …; experiment: cell-based or functional assay; remark: listed apart in the source
[3] = biological target: recombinant human BAFF (R&D cat: 7537-BF-025/CF) (human, UniProt Q9Y275 134-285, limits assumed); experiment: cell-based or functional assay
[4] = biological target: T2, APRIL (Acro Biosystems, Cat: APL-H52D1) (UniProt O75888 115-250, limits assumed); experiment: ELISA, APRIL coated, anti-human Fc-HRP, OD450
T2 construct: also called ARPIL; A proliferation-inducing ligand
T2 sequence (looked up): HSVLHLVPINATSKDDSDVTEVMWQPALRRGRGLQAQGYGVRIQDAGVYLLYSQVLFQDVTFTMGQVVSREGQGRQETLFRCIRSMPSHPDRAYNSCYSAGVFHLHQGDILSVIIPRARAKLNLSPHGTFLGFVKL
Method: The capabilities of fusion proteins B606401, B637302, B746201, and B805201 to bind to BAFF and APRIL were assessed by ELISA as follows:
(§1) BAFF (PeproTech, Cat: 310-13) or ARPIL (Acro Biosystems, Cat: APL-H52D1) was diluted to 1 μg/mL with PBS, and a 96-well plate was coated with the dilution overnight at 4° C. The plate was washed with PBST and blocked with Blocking Buffer (PBST containing 1% BSA) at 37° C. for 1 h. The plate was tapped. The test antibodies were diluted with Blocking Buffer. Incubation was performed at 37° C. for 1.5 h. The plate was washed with PBST. An HRP-mouse anti-human Fc antibody (GenScript, Cat: A01854-200) was diluted with Blocking Buffer. Incubation was performed at 37° C. for 40 min. The plate was washed with PBST. 100 μL of TMB substrate solution (Biopanda, Cat: TMB-S-003) was added, and color development was performed at 37° C. for 3 min. 100 μL of ELISA stop solution (Solarbio, Cat: C1058) was added. OD450 was measured.
The EC₅₀ value for the capability of B637302 to bind to APRIL decreased to 1/7 to ⅙ of that of telitacicept.

[5] = biological target: T3, recombinant human ARPIL (R&D cat: 5860-AP-010/CF) (human, UniProt O75888 105-250, limits assumed); experiment: cell-based or functional assay
T3 sequence (looked up): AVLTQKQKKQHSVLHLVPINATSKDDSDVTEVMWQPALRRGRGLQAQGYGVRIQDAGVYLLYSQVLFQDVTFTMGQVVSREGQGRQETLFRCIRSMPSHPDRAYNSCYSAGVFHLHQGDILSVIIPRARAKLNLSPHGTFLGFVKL

[6] = biological target: T2, APRIL (Acro Biosystems, Cat: APL-H52D1); experiment: ELISA, APRIL coated, anti-human Fc-HRP, OD450; remark: listed apart in the source
Method: The capabilities of B613301, B613302, and B613303, which are fusion proteins of anifrolumab and TACI-BCMA, to bind to BAFF and APRIL were assessed by ELISA as follows:
as §1, with “96-well plate (Costar, Cat: 3590) was coated” for “96-well plate was coated”

IC50, inhibition of IFN-α-induced in vitro differentiation of B cells into plasma cells [1]: 12.7 nM
IC50 (nM), inhibition of the activity of type I interferons (IFN-β, HEK-Blue IFN-α/β cells) [2]: 1.53 nM
B1: Anifrolumab (antibody, human IgG1, kappa, V domains shown)
VH: EVQLVQSGAEVKKPGESLKISCKGSGYIFTNYWIAWVRQMPGKGLESMGIIYPGDSDIRYSPSFQGQVTISADKSITTAYLQWSSLKASDTAMYYCARHDIEGFDYWGRGTLVTVSS
VL: EIVLTQSPGTLSLSPGERATLSCRASQSVSSSFFAWYQQKPGQAPRLLIYGASSRATGIPDRLSGSGSGTDFTLTITRLEPEDFAVYYCQQYDSSAITFGQGTRLEIKR

IC50, inhibition of IFN-α-induced in vitro differentiation of B cells into plasma cells [1]: 10.8 nM
Flow cytometry proliferating B cell proportion (%), mean, BAFF-induced, drug at 10 nM [3]: 23.8%
Flow cytometry proliferating B cell proportion (%), mean, BAFF-induced, drug at 100 nM [3]: 22.2%
Flow cytometry proliferating B cell proportion (%), mean, BAFF-induced, drug at 1000 nM [3]: 10.9%
Emax [4]: 2.9 nM
IC50 (nM), inhibition of the activity of type I interferons (IFN-β, HEK-Blue IFN-α/β cells) [2]: 1.59 nM
Flow cytometry proliferating B cell proportion (%), mean, APRIL-induced, drug at 4.12 nM [5]: 50.6%
Flow cytometry proliferating B cell proportion (%), mean, APRIL-induced, drug at 12.35 nM [5]: 50.7%
Flow cytometry proliferating B cell proportion (%), mean, APRIL-induced, drug at 37.04 nM [5]: 53.6%
Flow cytometry proliferating B cell proportion (%), mean, APRIL-induced, drug at 111.11 nM [5]: 51.5%
Flow cytometry proliferating B cell proportion (%), mean, APRIL-induced, drug at 333.33 nM [5]: 48%
Flow cytometry proliferating B cell proportion (%), mean, APRIL-induced, drug at 1000.00 nM [5]: 33.6%
B2: B637302 (other)
heavy: EVQLVQSGAEVKKPGESLKISCKGSGYIFTNYWIAWVRQMPGKGLESMGIIYPGDSDIRYSPSFQGQVTISADKSITTAYLQWSSLKASDTAMYYCARHDIEGFDYWGRGTLVTVSSASTKGPSVFPLAPSSKSTSGGTAALGCLVKDYFPEPVTVSWNSGALTSGVHTFPAVLQSSGLYSLSSVVTVPSSSLGTQTYICNVNHKPSNTKVDKRVEPKSCDKTHTCPPCPAPEFEGGPSVFLFPPKPKDTLMISRTPEVTCVVVDVSHEDPEVKFNWYVDGVEVHNAKTKPREEQYNSTYRVVSVLTVLHQDWLNGKEYKCKVSNKALPASIEKTISKAKGQPREPQVYTLPPSRDELTKNQVSLTCLVKGFYPSDIAVEWESNGQPENNYKTTPPVLDSDGSFFLYSKLTVDKSRWQQGNVFSCSVMHEALHNHYTQKSLSLSPGK
light: EIVLTQSPGTLSLSPGERATLSCRASQSVSSSFFAWYQQKPGQAPRLLIYGASSRATGIPDRLSGSGSGTDFTLTITRLEPEDFAVYYCQQYDSSAITFGQGTRLEIKRTVAAPSVFIFPPSDEQLKSGTASVVCLLNNFYPREAKVQWKVDNALQSGNSQESVTEQDSKDSTYSLSSTLTLSKADYEKHKVYACEVTHQGLSSPVTKSFNRGECGGGGSGGGGSMLQMAGQCSQNEYFDSLLHACIPCQLRCSSNTPPLTCQRYCSTSCREEQGEFYDHLLRDCISCASICGQHPKQCAAFCE
notes: Fusion protein of anifrolumab, TACI-19-16 and BCMA-ECD-2

The remaining lines, values behind:

B3: B613301 (other)
heavy: B2 heavy
light: EIVLTQSPGTLSLSPGERATLSCRASQSVSSSFFAWYQQKPGQAPRLLIYGASSRATGIPDRLSGSGSGTDFTLTITRLEPEDFAVYYCQQYDSSAITFGQGTRLEIKRTVAAPSVFIFPPSDEQLKSGTASVVCLLNNFYPREAKVQWKVDNALQSGNSQESVTEQDSKDSTYSLSSTLTLSKADYEKHKVYACEVTHQGLSSPVTKSFNRGECGGGGSGGGGSLSCRKEQGKFYDHLLRDCISCASICGQHPKQCAYFCENKLRSPGMLQMAGQCSQNEYFDSLLHACIPCQLRCSSNTPPLTCQRYCNASVTNSVKGTNA
notes: Fusion protein of anifrolumab and TACI-BCMA
Emax [6]: 2.49 nM

B4: B613303 (other)
heavy: B2 heavy
light: EIVLTQSPGTLSLSPGERATLSCRASQSVSSSFFAWYQQKPGQAPRLLIYGASSRATGIPDRLSGSGSGTDFTLTITRLEPEDFAVYYCQQYDSSAITFGQGTRLEIKRTVAAPSVFIFPPSDEQLKSGTASVVCLLNNFYPREAKVQWKVDNALQSGNSQESVTEQDSKDSTYSLSSTLTLSKADYEKHKVYACEVTHQGLSSPVTKSFNRGECGGGGSGGGGSSRVDQEERFPQGLWTGVAMRSCPEEQYWDPLLGTCMSCKTICNHQSQRTCAAFCRSLSCRKEQGKFYDHLLRDCISCASICGQHPKQCAYFCENKLRSPVNLPPELMLQMAGQCSQNEYFDSLLHACIPCQLRCSSNTPPLTCQRYCNASVTNSVKGTNA
notes: as for B3
Emax [6]: 2.33 nM

B5: B613302 (other)
heavy: B2 heavy
light: EIVLTQSPGTLSLSPGERATLSCRASQSVSSSFFAWYQQKPGQAPRLLIYGASSRATGIPDRLSGSGSGTDFTLTITRLEPEDFAVYYCQQYDSSAITFGQGTRLEIKRTVAAPSVFIFPPSDEQLKSGTASVVCLLNNFYPREAKVQWKVDNALQSGNSQESVTEQDSKDSTYSLSSTLTLSKADYEKHKVYACEVTHQGLSSPVTKSFNRGECGGGGSGGGGSMLQMAGQCSQNEYFDSLLHACIPCQLRCSSNTPPLTCQRYCNASVTNSVKGTNALSCRKEQGKFYDHLLRDCISCASICGQHPKQCAYFCENKLRSPG
notes: as for B3
Emax [6]: 2.52 nM

B6: B606401 (other)
heavy: B2 heavy
light: EIVLTQSPGTLSLSPGERATLSCRASQSVSSSFFAWYQQKPGQAPRLLIYGASSRATGIPDRLSGSGSGTDFTLTITRLEPEDFAVYYCQQYDSSAITFGQGTRLEIKRTVAAPSVFIFPPSDEQLKSGTASVVCLLNNFYPREAKVQWKVDNALQSGNSQESVTEQDSKDSTYSLSSTLTLSKADYEKHKVYACEVTHQGLSSPVTKSFNRGECGGGGSGGGGSSTSCREEQGEFYDHLLRDCISCASICGQHPKQCAAFCE
notes: Anifrolumab with TACI-19-16 at the C-terminus of the light chain
IC50, inhibition of IFN-α-induced in vitro differentiation of B cells into plasma cells [1]: 17.4 nM
Flow cytometry proliferating B cell proportion (%), mean, BAFF-induced, drug at 10 nM [3]: 28.1%
Flow cytometry proliferating B cell proportion (%), mean, BAFF-induced, drug at 100 nM [3]: 25.3%
Flow cytometry proliferating B cell proportion (%), mean, BAFF-induced, drug at 1000 nM [3]: 17.9%
Emax [4]: 2.81 nM
IC50 (nM), inhibition of the activity of type I interferons (IFN-β, HEK-Blue IFN-α/β cells) [2]: 1.94 nM
Flow cytometry proliferating B cell proportion (%), mean, APRIL-induced, drug at 4.12 nM [5]: 52%
Flow cytometry proliferating B cell proportion (%), mean, APRIL-induced, drug at 12.35 nM [5]: 52.9%
Flow cytometry proliferating B cell proportion (%), mean, APRIL-induced, drug at 37.04 nM [5]: 53.6%
Flow cytometry proliferating B cell proportion (%), mean, APRIL-induced, drug at 111.11 nM [5]: 53.1%
Flow cytometry proliferating B cell proportion (%), mean, APRIL-induced, drug at 333.33 nM [5]: 50.6%
Flow cytometry proliferating B cell proportion (%), mean, APRIL-induced, drug at 1000.00 nM [5]: 40.3%
